In the supplement of paper PMC9233669:
Variants at the floor of the assay were thinned out.

What was measured:
biotinyl-Phe-oxazolone = test: self-aminoacylation, catalytic enhancement (BFO) (fold over background); higher = more active; k-Seq, kA / k0A0; sequences stand for … in GGGAAUGGAUCCACAUCUACGAAUUC…UUCACUGCAGACUUGACGAAGCUG
Summary of the method: (§1)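 Each biotinyl-aminoacyl-oxazolone, at 2–1250 μM, was incubated with mutagenized RNA pools (0.43 μM) carrying a 21-nt variable region. The 50 μL reactions contained HEPES/NaCl/KCl/MgCl2/CaCl2 buffer with 5% acetonitrile at pH 6.9–7.0 and ran for 90 minutes at room temperature. After streptavidin capture, RNA was measured by qPCR in triplicate and by Illumina sequencing, and catalytic enhancement was calculated as median kA over the uncatalyzed rate from a pseudo-first-order fit of per-sequence fraction reacted.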

biotinyl-Leu-oxazolone = test: self-aminoacylation, catalytic enhancement (BLO) (fold over background); higher = more active; k-Seq, kA / k0A0; sequences stand for … in GGGAAUGGAUCCACAUCUACGAAUUC…UUCACUGCAGACUUGACGAAGCUG
Summary of the method: as §1

biotinyl-Val-oxazolone = test: self-aminoacylation, catalytic enhancement (BVO) (fold over background); higher = more active; k-Seq, kA / k0A0; sequences stand for … in GGGAAUGGAUCCACAUCUACGAAUUC…UUCACUGCAGACUUGACGAAGCUG
Summary of the method: as §1

biotinyl-Trp-oxazolone = test: self-aminoacylation, catalytic enhancement (BWO) (fold over background); higher = more active; k-Seq, kA / k0A0; sequences stand for … in GGGAAUGGAUCCACAUCUACGAAUUC…UUCACUGCAGACUUGACGAAGCUG
Summary of the method: as §1

biotinyl-Met-oxazolone = test: self-aminoacylation, catalytic enhancement (BMO) (fold over background); higher = more active; k-Seq, kA / k0A0; sequences stand for … in GGGAAUGGAUCCACAUCUACGAAUUC…UUCACUGCAGACUUGACGAAGCUG
Summary of the method: as §1

biotinyl-Ile-oxazolone = test: self-aminoacylation, catalytic enhancement (BIO) (fold over background); higher = more active; k-Seq, kA / k0A0; sequences stand for … in GGGAAUGGAUCCACAUCUACGAAUUC…UUCACUGCAGACUUGACGAAGCUG
Summary of the method: as §1

Sequence | self-aminoacylation (biotinyl-Phe-oxazolone) | self-aminoacylation (biotinyl-Leu-oxazolone) | self-aminoacylation (biotinyl-Val-oxazolone) | self-aminoacylation (biotinyl-Trp-oxazolone) | self-aminoacylation (biotinyl-Met-oxazolone) | self-aminoacylation (biotinyl-Ile-oxazolone)
AUGCGCCUAGGUCAUCGGGUG [Fam2.2 aminoacylation ribozyme variant] | 60.9 | 10.7 | 6.24 | 9.8 | 9.32 | 6.21
AUGUUUGCUAAUAAUCGCAAG [Fam3.1 aminoacylation ribozyme variant] | 1.34 | 1.06 | 1.35 | 1.04 | 0.97 | 1.38
AUGUUUGCUAAUACUCGCAAG [Fam3.1 aminoacylation ribozyme variant] | 0.958 | 0.966 | 0.908 | 0.728 | 0.735 | 0.985
AUGUUUGCUAAUAGACGCAAG [Fam3.1 aminoacylation ribozyme variant] | 0.828 | 0.564 | 0.736 | 0.508 | 0.611 | 0.691
AUGUUUGCUAAUAGUAGCAAG [Fam3.1 aminoacylation ribozyme variant] | 1.67 | 0.912 | 1.36 | 0.911 | 1.34 | 1.29
AUGUUUGCUAAUAGUCCCAAG [Fam3.1 aminoacylation ribozyme variant] | 2.79 | 0.966 | 1.11 | 1.25 | 0.965 | 1.08
AUGUUUGCUAAUAGUCGCAAA [Fam3.1 aminoacylation ribozyme variant] | 4.87 | 1.54 | 1.59 | 2.71 | 1.75 | 2.2
AUGUUUGCUAAUAGUCUCAAG [Fam3.1 aminoacylation ribozyme variant] | 5.12 | 1.01 | 1.04 | 1.43 | 1.12 | 1.27
AUUAACCAGGUCAUCGAGUGA [Fam2.1 aminoacylation ribozyme variant] | 22.2 | 5.32 | 2.8 | 6.86 | 5.17 | 3.17
AUUAACCUAGCUCAUCGGGUG [Fam2.2 aminoacylation ribozyme variant] | 8.47 | 1.65 | 1.79 | 1.86 | 1.96 | 1.79
AUUAACCUAGGCCAUCGGGUG [Fam2.2 aminoacylation ribozyme variant] | 15.1 | 4.62 | 2.45 | 3.52 | 3.21 | 2.31
AUUAACCUAGGUCAUCGGGUA [Fam2.2 aminoacylation ribozyme variant] | 262 | 46.4 | 13.9 | 20.3 | 33.2 | 17.7
AUUAACCUAGGUCUUCGGGUG [Fam2.2 aminoacylation ribozyme variant] | 17.9 | 3.58 | 2.73 | 2.95 | 2.98 | 2.64
AUUAACCUCGUCAUCGAGUGA [Fam2.1 aminoacylation ribozyme variant] | 3.89 | 2.82 | 2.25 | 4.68 | 3.27 | 2.33
AUUAACCUGGUCAUCAAGUGA [Fam2.1 aminoacylation ribozyme variant] | 4.41 | 2.94 | 1.85 | 3.18 | 3.1 | 1.76
AUUAACCUGGUCAUCGACUGA [Fam2.1 aminoacylation ribozyme variant] | 0.674 | 0.938 | 0.746 | 0.612 | 0.801 | 0.842
AUUAACCUGGUCAUCGAGUCA [Fam2.1 aminoacylation ribozyme variant] | 0.5 | 0.662 | 0.711 | 0.405 | 0.763 | 0.698
AUUAACCUGGUCAUCGAUUGA [Fam2.1 aminoacylation ribozyme variant] | 0.76 | 0.88 | 0.818 | 1.15 | 0.959 | 0.963
AUUAACCUGGUCAUUGAGUGA [Fam2.1 aminoacylation ribozyme variant] | 53.1 | 9.89 | 4.05 | 12 | 9.39 | 4.38
AUUAACCUGGUCUUCGAGUGA [Fam2.1 aminoacylation ribozyme variant] | 13 | 4.66 | 2.71 | 6.87 | 4.3 | 2.4
AUUAACCUGGUUAUCGAGUGA [Fam2.1 aminoacylation ribozyme variant] | 41.7 | 9.67 | 3.81 | 10.7 | 8.32 | 4.13
